B1: CA149 (antibody, human IgG1, kappa, V domains shown)
VH: EVQLVESGGGVVQPGRSLRLSCAASGFTFSSYAMHWVRQAPGKGLEWVAVISFDGSNKYYTDSVKGRFTISRDNSKNTLYLQMNSLRAEDTAVYYCAREVPYYYGSGPFDYWGQGTLVTVSS
VL: EIVLTQSPATLSVSPGERATLSCRASQSVSSNLAWYQQKPGQAPRHLIDGASSRASGIPDRFSGSGSGTDFTLTISRLEPEDFAVYYCQQYGSSPPFTFGPGTKVDIKR
notes: Intact IgG1; also called CA149 antibody
B2: CA185 (antibody, human IgG1, kappa, V domains shown)
VH: EVQLVESGGGVVQPGRSLRLSCAASGFTFSSYAMHWVRQAPGKGLEWVAVISYDGSNKYYADSVKGRFTISRDNSKNTLYLQMNSLRAEDTAVYYCAREVPYYYGSGPFDYWGQGTLVTVSS
VL: EIVLTQSPGTLSLSPGERATLSCRASQSVSSSSLAWYQQKPGQAPRHLIDGASSRASGIPDRFSGSGSGTDFTLTISRLEPEDFAVYYCQQYGSSYTFGQGTKVDIKR
notes: Intact IgG1
B3: CA13 (antibody, human IgG1, kappa, V domains shown)
VH: EVQLVESGGGVVQPGRSLRLSCAASGFTFSSYAMHWVRQAPGKGLEWVAVISYDGSNKYYADSVKGRFTISRDNSKNTLFLQMNSLRAEDTAVYYCARDVYHYGSRSPYYYGMDVWGQGTTVTVSS
VL: DIVMTQSPSSLSASVGDRVTITCRASQGISNYLAWFQQKPGKVPKLLIYAASTLQSGVPSRFSGSGSGTDFTLTISSLQPEDVATYYCQKYNSAPFTFGPGTKVDIKR
notes: Intact IgG1 from fully human antibody-transgenic mice
B4: CA518 (antibody, human IgG1, kappa, V domains shown)
VH: EVQLVESGGGVVQPGRSLRLSCAASGFTFSSYAMHWVRQAPGKGLEWVAVISYDGSNKYHADSVKGRFTISRDNSKNTLFLQMNSLRAEDTAVYYCVRDVYHYGSRSPYYYGMDVWGQGTTVTVSS
VL: DIQMTQSPSSVSASVGDRVTITCRASQGISSWLAWYQQKPGKAPKLLIYAASSLQSGVPSRFSGSGSGTDFTLTISSLQPEDVATYYCQKYNSAPFTFGPGTKVDIKR
notes: Intact IgG1
B5: CA67 (antibody, human IgG1, kappa, V domains shown)
VH: EVQLVESGGGVVQPGRSLRLSCAASGFTFSSYAMHWVRQAPGKGLEWVAVISYDGSNKYYADSVKGRFTISRDNSKNTLYLQMNSLRAEDTAVYYCARDVYHYGSRSPYYYGMDVWGQGTTVTVSS
VL: DIQMTQSPSSLSASVGDRVTITCRASQAISNYLAWYQQKPGKVPKLLIYAASTLHPGVPSRFSGSGSGTDFTLTISSLQPEDVATYYCQKYNSAPFTFGPGTKVDIKR
notes: Intact IgG1
B6: BA352 (antibody, human IgG1, kappa, V domains shown)
VH: EVQLVESGGGVVQPGRSLRLSCAASGFTFSSYAMHWVRQAPGKGLEWVAVISYDGSNKYYADSVKGRFTISRDNSKNTLYLQMNSLRAEDTAVYYCARGPYLAAAGTALTFDIWGQGTMVTVSS
VL: DIQMTQSPSAMSASVGDRVTITCRASQGINNYLAWFQQKPGKVPKRLIYAASSLQSGVPSRFSGSGSGTEFTLTISSLQPEDFATYYCLQHNSYPFTFGPGTKVDIKR
notes: Intact IgG1

Columns and labels:
Human CD228 protein [1] = biological target: T1, Human CD228 protein (human, UniProt P08582 20-708, limits assumed); test: Octet competition on His-chip CD228; competitor: CA13
T1 construct: Recombinant protein made in CHO cells, purified over a Ni column; The printed entry begins with the leader (MRGPSG...) and ends with ten His; also called hCD228; CD228-His protein
T1 sequence: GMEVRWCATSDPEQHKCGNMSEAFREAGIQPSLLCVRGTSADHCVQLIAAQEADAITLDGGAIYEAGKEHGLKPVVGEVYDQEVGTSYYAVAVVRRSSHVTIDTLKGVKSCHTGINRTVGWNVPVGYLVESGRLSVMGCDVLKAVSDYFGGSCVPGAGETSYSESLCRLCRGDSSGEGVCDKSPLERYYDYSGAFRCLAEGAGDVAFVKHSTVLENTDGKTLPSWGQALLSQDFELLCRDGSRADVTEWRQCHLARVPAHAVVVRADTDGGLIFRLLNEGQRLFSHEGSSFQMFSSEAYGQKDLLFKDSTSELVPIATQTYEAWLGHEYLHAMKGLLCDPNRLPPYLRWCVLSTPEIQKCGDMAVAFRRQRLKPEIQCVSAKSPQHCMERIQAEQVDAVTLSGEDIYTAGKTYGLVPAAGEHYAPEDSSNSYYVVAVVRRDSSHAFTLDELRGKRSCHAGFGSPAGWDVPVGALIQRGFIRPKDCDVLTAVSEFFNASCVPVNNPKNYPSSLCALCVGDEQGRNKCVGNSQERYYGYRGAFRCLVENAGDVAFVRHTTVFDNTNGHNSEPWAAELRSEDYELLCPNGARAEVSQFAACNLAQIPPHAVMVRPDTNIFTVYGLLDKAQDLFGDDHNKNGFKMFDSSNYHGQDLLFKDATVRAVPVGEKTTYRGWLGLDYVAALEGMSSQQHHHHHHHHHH
Procedure: (§1) CD228 proteins were immobilized on His chips at 10 μg/mL with a threshold of 0.5 nm. The first CD228 antibody (30 μg/mL) was immobilized, and the competitive binding of the second CD228 antibody (30 μg/mL) was analyzed. The Octet 8K system was used to analyze the response of antibody 2 and to determine whether antibody 1 and antibody 2 were in competition.

Human CD228 protein [2] = biological target: T1, Human CD228 protein; test: Octet competition on His-chip CD228; competitor: CA67
Procedure: as §1

Human CD228 protein [3] = biological target: T1, Human CD228 protein; test: Octet competition on His-chip CD228; competitor: hl49
Procedure: as §1

Human CD228 protein [4] = biological target: T1, Human CD228 protein; test: Octet competition on His-chip CD228; competitor: CA13; remark: listed apart in the source
Procedure: as §1
(§2) The final competition analysis was conducted using the following calculation method: 1—response value/blank value.

Human CD228 protein [5] = biological target: T1, Human CD228 protein; test: Octet competition on His-chip CD228; competitor: hl49; remark: listed apart in the source
Procedure: as §1, §2

Human CD228 protein [6] = biological target: T1, Human CD228 protein; test: Octet competition on His-chip CD228; competitor: CA149
Procedure: as §1

Human CD228 protein [7] = biological target: T1, Human CD228 protein; test: Octet competition on His-chip CD228; competitor: CA185
Procedure: as §1

Human CD228 protein [8] = biological target: T1, Human CD228 protein; test: Octet competition on His-chip CD228; competitor: CA518
Procedure: as §1

Human CD228 protein [9] = biological target: T1, Human CD228 protein; test: Octet competition on His-chip CD228; competitor: CA185; remark: listed apart in the source
Procedure: as §1, §2

Human CD228 protein [10] = biological target: T1, Human CD228 protein; test: Octet competition on His-chip CD228; competitor: CA518; remark: listed apart in the source
Procedure: as §1, §2

Mouse CD228 protein = biological target: T2, Mouse CD228 protein (mouse, UniProt Q9R0R1 20-708, limits assumed); test: SPR, BIAcore 8K; antibody on ProA chip, CD228 protein as analyte
T2 construct: Recombinant His-tagged protein from CHO cells
T2 chain: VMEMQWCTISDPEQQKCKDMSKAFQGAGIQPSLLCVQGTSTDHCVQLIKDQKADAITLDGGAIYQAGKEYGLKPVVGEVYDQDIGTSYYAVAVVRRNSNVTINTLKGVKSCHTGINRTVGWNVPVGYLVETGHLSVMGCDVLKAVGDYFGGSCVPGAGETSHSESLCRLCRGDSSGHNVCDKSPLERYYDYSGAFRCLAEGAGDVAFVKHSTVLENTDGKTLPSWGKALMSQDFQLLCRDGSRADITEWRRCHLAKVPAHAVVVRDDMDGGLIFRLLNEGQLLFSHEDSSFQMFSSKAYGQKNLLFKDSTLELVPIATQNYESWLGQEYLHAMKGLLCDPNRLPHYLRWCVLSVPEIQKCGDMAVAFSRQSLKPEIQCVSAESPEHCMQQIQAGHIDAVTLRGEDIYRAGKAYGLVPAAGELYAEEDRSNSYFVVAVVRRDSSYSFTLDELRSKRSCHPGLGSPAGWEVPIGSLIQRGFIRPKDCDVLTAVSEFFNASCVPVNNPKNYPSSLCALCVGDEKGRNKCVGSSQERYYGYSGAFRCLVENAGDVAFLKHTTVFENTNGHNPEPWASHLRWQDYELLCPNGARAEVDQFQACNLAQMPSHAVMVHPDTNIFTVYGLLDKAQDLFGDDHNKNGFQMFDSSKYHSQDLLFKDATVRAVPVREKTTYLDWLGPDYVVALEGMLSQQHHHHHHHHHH
Procedure: The binding kinetics of the antibodies to the CD228 proteins was measured using the BIAcore 8K system based on surface plasmon resonance (SRP). CD228 antibodies were immobilized on ProA chips at a concentration of 2 μg/mL, and the binding activity of the CD228 antibodies to human, monkey, and mouse CD228 proteins was analyzed. Human, monkey and mouse CD228 proteins were serially 2-fold diluted from 50 nM to 5 concentrations with an HBS-EP+ buffer. The binding kinetics of the CD228 proteins were analyzed by Biacore, and the affinity activity KD values were calculated by fitting.

Human CD228 protein [11] = biological target: T1, Human CD228 protein; test: Octet, CD228 on His chip; PBST buffer in place of the first antibody
Procedure: as §1

Binder | Octet response value (Human CD228 protein [1]) | Octet response value (Human CD228 protein [2]) | Octet response value (Human CD228 protein [3]) | competition (1-response value/blank value) (Human CD228 protein [4]) | competition (1-response value/blank value) (Human CD228 protein [5]) | Octet response value (Human CD228 protein [6]) | Octet response value (Human CD228 protein [7]) | Octet response value (Human CD228 protein [8]) | competition (1-response value/blank value) (Human CD228 protein [9]) | competition (1-response value/blank value) (Human CD228 protein [10]) | binding result (Mouse CD228 protein) | Octet response value (blank value, PBST buffer) (Human CD228 protein [11])
B1 | 0.0117 | 0.0087 | 0.348 | 97% | 0% | 0.0039 | 0.0102 | 0.0079 | 98% | 98% | no binding | 0.409
B2 | 0.0046 | 0.0028 | 0.356 | 99% | -3% | 0.0089 | 0.0055 | 0.0029 | 99% | 99% | no binding | 0.411
B3 | -0.0011 | -0.0021 | 0.353 | 100% | -2% | -0.0059 | -0.0061 | -0.0081 | 101% | 102% | no binding | 0.393
B4 | 0.006 | 0.0039 | 0.281 | 98% | 19% | -0.0041 | -0.0043 | -0.0046 | 101% | 101% | no binding | 0.442
B5 | -0.0065 | -0.007 | 0.33 | 102% | 5% | -0.012 | -0.0132 | -0.0133 | 103% | 103% | no binding | 0.425
B6 | 0.424 | 0.443 | 0.0006 | -8% | 100% | 0.416 | 0.426 | 0.458 | -3% | -4% | no binding | 0.393
